Data published in patent US20240390512A1 (Daiichi Sankyo, published 2024).
Numbering of substitutions follows the chain as printed.

B1: rat anti-human CDH6 monoclonal antibody rG055 (antibody, rat IgG2b, V domains shown)
VH: EVQLQESGPGLVRPSQSLSLSCSVTDYSITSNYWGWIRRFPGNKMEWMGYITYSGYTSYNPSLQSRISITRDTSKNQFFLQLNSVTAEDTATYYCARSINHGGYSYVVDAWGPGASVTVSS
VL: DVQMTHSPSYLAASPGESVSISCKTSKNISNYLVWYQQKPGEAYKLLIYSGSTLQSGTPSRFSGSGSGTDFTLTIRSLEPEDFGLYFCQQYYEKPFTFGSGTKLEIKR
notes: Purified from hybridoma supernatant; also called rG055 antibody
B2: rat anti-human CDH6 monoclonal antibody rG061 (antibody, rat IgG2b, V domains shown)
VH: EVQLQESGPGLVKPSQSLSLTCSVTGYSITTYYWGWIRKFPGNKMEWMGYISYSGRTSYNPSLKSRMSITRDASKNQFFLQLNSVTTDDTATYYCARSPINHGGYWYFDFWGPGTMVTVSS
VL: B1 VL with H6Q, T25A, S26T, N28S, V34A, L46V, F87S, F96L
notes: Purified from hybridoma supernatant; also called rG061 antibody
B3: rat anti-human CDH6 monoclonal antibody rG056 (antibody, rat IgG2b, V domains shown)
VH: EVQLQESGPGLVKPSQSLSLTCSVTDYSITTYFWGWIRKFPGNKMEWMGYMSYRGGTSYNPSLKSRISITRDTSKNQFFLQLNSVTTEDTATYYCARCPNYGGHSLVFDYWGQGVMVTVSS
VL: DVQMTQSPSSLAASPGESVSISCRATKSIGIYLAWYQQKPGKTFKLLIYSGSTLQSGTPSRFSGSGSGTDFTLTIRSLEPEDFGLYFCQQFYENPFTFGSGTKLEIRR
notes: Purified from hybridoma supernatant; also called rG056 antibody
B4: rat anti-human CDH6 monoclonal antibody rG019 (antibody, rat IgG2b, V domains shown)
VH: QVQLQQSGAELVKPGSSVKISCKASGYTFTRNFMHWIKQQPGNGLEWIGWIYCGDGETEYNQKFNGKATLTADRSSSTAYMELSRLTSEDSAVYFCARGVYGGFAGGYFDFWGQGVMVTVSS
VL: DIQMTQSPSLLSASVGDRVTLNCKASQNIYKNLAWYQQKLGEGPKLLIYDANTLQTGIPSRFSGSGSGSDFTLTISSLQPEDVATYFCQQYYSGWAFGGVTNLELKRA
notes: Purified from hybridoma supernatant; also called rG019 antibody

What follows are binders tested against T1, human CDH6 (cadherin-6), full-length, on cells (human, UniProt P55285 54-790) (assay: flow cytometry; hCDH6-transfected 293T cells (open line) against untransfected 293T cells (shaded); antibody 10 ng/mL; anti-rat IgG-FITC).
T1 construct: also called hCDH6; full-length hCDH6
T1 sequence: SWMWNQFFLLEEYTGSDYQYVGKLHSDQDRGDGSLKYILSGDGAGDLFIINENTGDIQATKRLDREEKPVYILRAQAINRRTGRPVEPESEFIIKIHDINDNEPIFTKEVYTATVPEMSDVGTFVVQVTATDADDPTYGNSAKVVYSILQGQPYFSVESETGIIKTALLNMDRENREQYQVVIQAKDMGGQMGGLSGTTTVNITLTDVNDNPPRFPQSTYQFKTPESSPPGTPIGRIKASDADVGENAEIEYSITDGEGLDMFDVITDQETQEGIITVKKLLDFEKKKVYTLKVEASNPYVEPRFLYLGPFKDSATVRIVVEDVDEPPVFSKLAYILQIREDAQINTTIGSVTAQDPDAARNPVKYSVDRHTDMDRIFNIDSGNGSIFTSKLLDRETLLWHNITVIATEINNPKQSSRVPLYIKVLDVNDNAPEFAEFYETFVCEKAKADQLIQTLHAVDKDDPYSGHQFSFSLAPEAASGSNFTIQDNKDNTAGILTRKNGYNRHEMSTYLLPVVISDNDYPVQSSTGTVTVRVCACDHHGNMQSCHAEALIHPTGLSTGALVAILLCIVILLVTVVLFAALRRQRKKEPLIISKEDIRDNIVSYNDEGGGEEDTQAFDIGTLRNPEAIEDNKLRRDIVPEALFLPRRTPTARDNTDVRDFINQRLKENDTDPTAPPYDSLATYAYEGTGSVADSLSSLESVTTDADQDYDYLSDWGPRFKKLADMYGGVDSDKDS

Does B1 bind?
Result: binds

Does B2 bind?
Result: binds

Does B3 bind?
Result: binds

Does B4 bind?
Result: binds

What follows are binders tested against T2, cynomolgus monkey CDH6, on cells (cynomolgus monkey, UniProt P55285 54-790 (human entry)) (assay: Cell-ELISA and flow cytometry screening with hybridoma supernatants on transfected cells).
T2 construct: Expressed from pcDNA3.1-cynoCDH6; also called cynoCDH6
T2 sequence: T1 sequence with Y300H, H457R, A707G

Does B1 bind?
Result: binds

Does B2 bind?
Result: binds

Does B3 bind?
Result: binds

Does B4 bind?
Result: binds

The binders below were run against T3, EC3 deletion mutant of human CDH6, on cells (human, UniProt P55285 54-790) (assay: flow cytometry; 293α cells transfected with EC3-deleted hCDH6 (open line) against untransfected 293α cells (shaded); anti-rat IgG-FITC).
T3 construct: in p3×FLAG-CMV-9; also called EC3-deleted hCDH6
T3 sequence: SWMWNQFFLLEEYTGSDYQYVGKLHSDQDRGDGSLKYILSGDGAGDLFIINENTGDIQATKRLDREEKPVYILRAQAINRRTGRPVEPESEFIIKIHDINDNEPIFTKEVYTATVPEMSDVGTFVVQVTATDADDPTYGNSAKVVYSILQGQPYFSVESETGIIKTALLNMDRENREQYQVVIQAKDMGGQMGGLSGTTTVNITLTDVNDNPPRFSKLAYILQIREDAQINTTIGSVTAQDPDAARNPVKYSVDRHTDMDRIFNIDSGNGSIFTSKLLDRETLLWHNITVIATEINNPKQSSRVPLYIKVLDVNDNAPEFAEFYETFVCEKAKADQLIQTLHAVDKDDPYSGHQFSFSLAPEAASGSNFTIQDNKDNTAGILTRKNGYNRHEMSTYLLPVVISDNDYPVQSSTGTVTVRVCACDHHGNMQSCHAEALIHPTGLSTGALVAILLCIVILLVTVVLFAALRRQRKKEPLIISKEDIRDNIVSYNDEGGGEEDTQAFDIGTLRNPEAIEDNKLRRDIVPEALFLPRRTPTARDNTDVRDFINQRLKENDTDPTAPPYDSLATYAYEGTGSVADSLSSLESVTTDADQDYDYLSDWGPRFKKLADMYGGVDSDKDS

Does B1 bind?
Result: no binding (tested: 20 nM)

Does B2 bind?
Result: no binding (tested: 20 nM)

Does B3 bind?
Result: no binding (tested: 20 nM)

Does B4 bind?
Result: no binding (tested: 20 nM)
